Reference: patent US20230338526A1 (BIO THERA SOLUTIONS, published 2023)

Legend:
CD20 [1] = target: T1, CD20 (human, UniProt P11836 1-297); assay: cell-based or functional assay
T1 sequence (looked up): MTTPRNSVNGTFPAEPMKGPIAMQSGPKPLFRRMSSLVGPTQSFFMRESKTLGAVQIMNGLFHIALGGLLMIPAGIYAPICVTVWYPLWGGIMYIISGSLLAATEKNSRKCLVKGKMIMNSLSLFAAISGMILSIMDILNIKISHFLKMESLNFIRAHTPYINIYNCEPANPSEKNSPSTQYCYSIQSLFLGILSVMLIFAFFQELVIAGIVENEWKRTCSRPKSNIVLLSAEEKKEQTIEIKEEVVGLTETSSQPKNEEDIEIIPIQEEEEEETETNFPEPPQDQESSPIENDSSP

CD20 [2] = target: T1, CD20; assay: cell-based or functional assay; remark: listed apart in the source
CD20 [3] = target: T1, CD20; assay: binding to CD20+ cells; method and cell line not stated

B1: Rituximab (antibody, V domains shown)
VH: QVQLQQPGAELVKPGASVKMSCKASGYTFTSYNMHWVKQTPGRGLEWIGAIYPGNGDTSYNQKFKGKATLTADKSSSTAYMQLSSLTSEDSAVYYCARSTYYGGDWYFNVWGAGTTVTVSA
VL: QIVLSQSPAILSASPGEKVTMTCRASSSVSYIHWFQQKPGSSPKPWIYATSNLASGVPVRFSGSGSGTSYSLTISRVEAEDAATYYCQQWTSNPPTFGGGTKLEIK
In the case of B1, the “Percentage of whole blood B-cell depletion in vitro, 10 ng/ml” value (CD20 [1]) is reported as 17.8%, the “Percentage of whole blood B-cell depletion in vitro, 50 ng/ml” value (CD20 [1]) is reported as 36% and the “ADCC, PBMC method” value (CD20 [2]) is reported as 0.0496 nM. The “ADCC, Reporter gene assay method” value (CD20 [2]) was 0.019 nM and the “Binding to CD 20^+ cells” value (CD20 [3]) was 10.2 nM.
